The values below are quoted from earlier work in patent US20020019334A1, “Nutritional intervention composition for enhancing and extending satiety” (priority 2000, published 2002).

For the data set the following is noted: injection, humans.

B1: Cholecystokinin (peptide, UniProt P06307 21-115, looked up)
Cholecystokinin: QPVPPADPAGSGLQRAEEAPRRQLRVSQRTDGESRAHLGALLARYIQQARKAPSGRMSIVKNLQNLDPSHRISDRDYMGWMDFGRRSAEEYEYPS
modifications: Cholecystokinin
Turning to B1, the “decrease of food intake” value is recorded as 16%.
